Results reported in patent US20240228629A1 (CITY OF HOPE, published 2024).

Experiments:
[1] = target: T1, EGFRviii on U87-EGFRviii cells (human, UniProt P00533); test: flow cytometry on U87-EGFRviii cells, 1, 10, 100 ug/ml, anti-Fc Alexa-647 secondary
T1 construct: the U87-EGFRviii cells also carry whatever EGFR the parent U87 line carries; a shift on these cells cannot be split between the two forms
Protocol: The cells were detached by trypsin and incubated with 1, 10, or 100 ug/ml EGFR Ab in 2% BSA in PBS at 4° ° C. After 30 minutes, cells were washed with 2% BSA in PBS. […] The cells were analyzed by flow cytometry after washing.

BSA = target: T2, BSA (bovine, UniProt P02769); test: ELISA on coated recombinant proteins, title "Titer of purified mAb"; antibody concentration not given
T2 construct: also called bovine serum albumin
T2 sequence (P02769 25-607 limits assumed): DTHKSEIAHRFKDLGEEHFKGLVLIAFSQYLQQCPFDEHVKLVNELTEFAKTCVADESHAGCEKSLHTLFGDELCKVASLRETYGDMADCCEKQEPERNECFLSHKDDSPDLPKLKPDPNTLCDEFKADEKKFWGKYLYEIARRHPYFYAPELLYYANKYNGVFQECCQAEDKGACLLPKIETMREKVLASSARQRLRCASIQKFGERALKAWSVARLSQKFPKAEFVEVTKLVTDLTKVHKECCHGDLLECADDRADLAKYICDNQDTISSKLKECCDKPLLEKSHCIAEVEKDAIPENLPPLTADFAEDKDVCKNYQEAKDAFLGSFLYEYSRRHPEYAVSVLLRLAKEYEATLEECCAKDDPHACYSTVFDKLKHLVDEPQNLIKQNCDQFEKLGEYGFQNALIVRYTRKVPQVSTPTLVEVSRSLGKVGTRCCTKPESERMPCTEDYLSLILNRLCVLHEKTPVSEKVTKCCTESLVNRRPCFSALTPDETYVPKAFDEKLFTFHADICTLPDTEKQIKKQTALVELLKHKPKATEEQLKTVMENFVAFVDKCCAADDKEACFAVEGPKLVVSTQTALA

[2] = target: T3, D4-IgA1 (extracellular domain IV of human EGFR fused with human IgA1.Fc) (human); test: ELISA: EGFR-IgA1 immobilised in microwells, hybridoma culture supernatant, goat anti-mouse IgG.Fc-HRP, OD450
T3 construct: also called EGFR-IgA1; human EGFR-IgA
T3 chain: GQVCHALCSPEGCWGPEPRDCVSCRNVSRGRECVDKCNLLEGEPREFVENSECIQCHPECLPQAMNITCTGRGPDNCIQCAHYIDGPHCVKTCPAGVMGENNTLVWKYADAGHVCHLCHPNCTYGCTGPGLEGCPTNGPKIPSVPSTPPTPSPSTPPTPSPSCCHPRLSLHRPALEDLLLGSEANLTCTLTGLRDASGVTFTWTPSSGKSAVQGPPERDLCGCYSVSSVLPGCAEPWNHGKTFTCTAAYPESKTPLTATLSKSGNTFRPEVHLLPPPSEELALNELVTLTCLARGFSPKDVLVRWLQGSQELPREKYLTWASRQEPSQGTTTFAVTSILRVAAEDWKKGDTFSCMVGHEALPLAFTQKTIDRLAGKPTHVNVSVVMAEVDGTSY

EGFR domain IV [3] = target: T4, EGFR domain IV (human, UniProt P00533 505-645); test: SPR, EGFR domain IV immobilised on CM5 chip, Fab injected
T4 construct: Immobilised on a CM5 chip for SPR; also called domain IV of EGFR; EGFR D4
Protocol: EGFR domain IV was immobilized on a CM5 chip at a density of 500 RU through EDC/NHS coupling. […] In another experiment, EGFR domain IV was again immobilized on a CM5 chip at a density of 500 RU through EDC/NHS coupling. […] The samples were injected at concentrations of 300 nM, 100 nM, 30 nM, 10 nM, and 3 nM (FIGS. 15A-15C). The sensorgram curves were subsequently analyzed.

EGFR domain IV [4] = target: T4, EGFR domain IV; test: SPR, EGFR domain IV immobilised on CM5 chip, IgG injected
EGFR domain IV [5] = target: T4, EGFR domain IV; test: SPR, EGFR domain IV immobilised on CM5 chip, IgG injected; Table 18 (second kinetic set, apart from Table 17)
EGFR domain IV [6] = target: T4, EGFR domain IV; test: SPR, EGFR domain IV immobilised on CM5 chip, IgG injected; remark: listed apart in the source

B1: EGFRD4-34Ab (antibody, V domains shown)
VH: QIQLVQSGPELKKPGETVKISCKASGYTFTNYGMNWVKQAPGKGLKWMGWINTYTGDPTYADDFKGRFAFSLETSASTAYLQINNLKNEDMATYFCARRISTMITTWFAYWGQGTLVTVSA
VL: DIQMTQSPASLSASVGETVTITCRASENIYSYLAWFQQRQGKSPQLLVYNAKTLTEGVPSRFSGSGSGTQFSLKINSLQPEDFGSYYCQHYQVTPYTFGGGTKLEIK
notes: also called Clone # 34
B1: binds [1].

B2: 5C8 hybridoma clone antibody (mouse, culture supernatant) (antibody, V domains shown)
VH: EVQLQQSGPELVKTGASVKISCKASGYSFTGYYMHWVKQSHGKSLEWIGYINCYNGAINYNQKFKGKATFTVDTSSSTVYMQFNSLTSEDSAVYYCVRAGIHYDYDEAWFAYWGQGTLVTVSA
VL: QAVVTQESALTTSPGETVTLTCRSSTGPVIIRNYANWVQEKPDHLFTGLIGGTNNRAPGVPARFSGSLIGDKAALTITGAQTEDEAIYFCALWYNNHWVFGGGTKLTVL
notes: Mouse antibody from hybridoma supernatant; also called 5C8 clone; Clone 5C8
B2: no binding (BSA); binds [2].

B3: EGFRD4-5C8 Fab (Fab, V domains shown)
VH: B2 VH
VL: B2 VL
notes: Fab of clone 5C8
A Kd (EGFR domain IV [3]) of 170000 pM, a koff (EGFR domain IV [3]) of 0.0305 s⁻¹ and a kon (EGFR domain IV [3]) of 179000 M⁻¹ s⁻¹ were found for B3 in this work.

B4: chimeric anti-domain IV EGFR antibody clone 5C8 (EGFRD4-5C8) (antibody, V domains shown)
VH: B2 VH
VL: B2 VL
notes: also called 5C8 IgG; 5C8 mAb
A koff (EGFR domain IV [4]) of 0.00013 s⁻¹, a kon (EGFR domain IV [4]) of 604000 M⁻¹ s⁻¹ and a Kd (EGFR domain IV [5]) of 214 pM were found for B4 in this work. It also gave a Kd (EGFR domain IV [6]) of 487 pM, a koff (EGFR domain IV [6]) of 0.000249 s⁻¹ and a kon (EGFR domain IV [6]) of 512000 M⁻¹ s⁻¹.
